Values belong to the binder of their own block, whether it stands above or below them.
Biological target: phosphodiesterase 6 delta subunit (PDE6δ), N-terminal histidine-tagged (UniProt O43924 1-150)
Experiment: FP; mantGppNHp-loaded Arl; stopped-flow

phosphodiesterase 6 delta subunit (PDE6δ), N-terminal histidine-tagged, sequence (O43924 whole entry, stated change not applied): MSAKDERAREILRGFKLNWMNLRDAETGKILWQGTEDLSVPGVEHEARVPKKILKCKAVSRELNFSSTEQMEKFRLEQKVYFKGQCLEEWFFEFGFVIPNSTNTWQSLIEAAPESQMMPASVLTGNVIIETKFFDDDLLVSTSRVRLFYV

koff: 0.33 s⁻¹
B1: full-length Arl2, C-terminal histidine-tagged, bound to GppNHp or mantGppNHp (natural protein)
chain: MGLLTILKKMKQKERELRLLMLGLDNAGKTTILKKFNGEDVDTISPTLGFNIKTLEHRGFKLNIWDVGGQKSLRSYWRNYFESTDGLIWVVDSADRQRMQDCQRELQSLLVEERLAGATLLIFANKQDLPGALSCNAIQEALELDSIRSHHWRIQGCSAVTGEDLLPGIDWLLDDISSRVFTAD

koff: 0.98 s⁻¹
B2: N-terminally truncated Arl2 (aa 17-178), bound to mantGppNHp (domain or fragment)
chain: LRLLMLGLDNAGKTTILKKFNGEDVDTISPTLGFNIKTLEHRGFKLNIWDVGGQKSLRSYWRNYFESTDGLIWVVDSADRQRMQDCQRELQSLLVEERLAGATLLIFANKQDLPGALSCNAIQEALELDSIRSHHWRIQGCSAVTGEDLLPGIDWLLDDISS
